Measured values: the supplement of paper PMC10724198

Columns and labels:
Saccharomyces cerevisiae [1] = assay: protein stability index of tFT-peptide fusion in wild type (PSI (0-1 scale)); higher = more stable (slower turnover); conditions: genetic background: wild type
Protocol: (§1)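 MPS profiling in S. cerevisiae of two library types built from selected 12-aa C-degron peptides (IN1, IN2, LN1, LN3, VN2, R1-R5, W1-W3, Atg1 and Rpa12 C-termini): saturation mutagenesis libraries and C-terminal +1 capping libraries (13 aa). Each peptide is fused to the C-terminus of a sfGFP-mCherry timer, after a GGGS linker. Cells are FACS-sorted into 8 mCherry/sfGFP bins and sequenced. PSI runs from 0 (unstable) to 1 (stable), measured once in wild type and in the das1Δ or doa10Δ background.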

Saccharomyces cerevisiae [2] = assay: protein stability index of tFT-peptide fusion in deletion strain of DOA10 (PSI (0-1 scale)); higher = more stable (slower turnover)
Protocol: as §1

Saccharomyces cerevisiae [3] = assay: protein stability index of tFT-peptide fusion in deletion strain of DAS1 (PSI (0-1 scale)); higher = more stable (slower turnover)
Protocol: as §1
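Throughout, for protein stability index of tFT-peptide fusion in deletion strain of DAS1: PSI is a weighted mean of each variant's read distribution over the sorted stability bins, computed only for variants having over 10 reads in total.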
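Throughout, for protein stability index of tFT-peptide fusion in deletion strain of DOA10: PSI per variant is the weighted mean of its sequencing read distribution over the sorted stability bins, counting only variants with over 10 reads summed across bins.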
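Throughout, for protein stability index of tFT-peptide fusion in wild type: PSI derived as read-weighted mean over the 8 sorting bins, only variants exceeding 10 total reads kept, mCherry placed adjacent to the peptide and sfGFP distal.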

| Sequence | protein stability index (Saccharomyces cerevisiae [1]) | protein stability index (Saccharomyces cerevisiae [2]) | protein stability index (Saccharomyces cerevisiae [3]) |
| --- | --- | --- | --- |
| RSIRVLLPLYFR | 0.225 | 0.643 |  |
| RSLRVLLPYYFR | 0.545 | 0.678 |  |
| IVTRLDAIYFRI | 0.24 | 0.612 |  |
| AITLPMCPLLLRK | 0.43 | 0.67 |  |
| RVTRLEAIYFRI | 0.268 | 0.62 |  |
| CLVSLPMLLFFR | 0.0605 | 0.626 |  |
| RVTRLDAMYFRI | 0.549 | 0.698 |  |
| CLVMLPILLFFR | 0.0682 | 0.426 |  |
| RVTRLDAIYFKI | 0.352 | 0.595 |  |
| GLVMCSVGCWFR | 0.19 | 0.45 |  |
| CLVSLLILLFFR | 0.319 | 0.408 |  |
| GLTMCSVGCWFR | 0.219 | 0.674 |  |
| RVTRLKAIYFRI | 0.155 | 0.32 |  |
| AITQPMCPLLLR | 0.508 | 0.701 |  |
| RVTRLDAIYFRA | 0.608 | 0.697 |  |
| ATTLPMCPLLLR | 0.383 | 0.673 |  |
| GLYMESVGCWFR | 0.415 | 0.703 |  |
| RSLRVLLPLCFR | 0.405 | 0.687 |  |
| AISLPMCPLLLR | 0.226 | 0.655 |  |
| WLVSLPILLFFR | 0.105 | 0.518 |  |
| GLYMCSVGCWFN | 0.29 | 0.343 |  |
| RSYRVLLPLYFR | 0.217 | 0.637 |  |
| TSLRVLLPLYFR | 0.294 | 0.654 |  |

| Sequence | protein stability index (Saccharomyces cerevisiae [1]) | protein stability index (Saccharomyces cerevisiae [2]) | protein stability index (Saccharomyces cerevisiae [3]) |
| --- | --- | --- | --- |
| AITFPMCPLLLR | 0.3 | 0.676 |  |
| RSLRVELPLYFR | 0.17 | 0.685 |  |
| RSLRVLLPLYER | 0.645 | 0.658 |  |
| RHLRVLLPLYFR | 0.277 | 0.678 |  |
| RSLRVLLPLMFR | 0.288 | 0.654 |  |
| CLVSNPILLFFR | 0.368 | 0.661 |  |
| CLVQLPILLFFR | 0.0481 | 0.597 |  |
| RVTRLDARYFRI | 0.667 | 0.718 |  |
| AITLPMCPLLLS | 0.405 | 0.443 |  |
| RSLRVLLPLYFRK | 0.293 | 0.593 |  |
| AITLIMCPLLLR | 0.465 | 0.658 |  |
| RVRRLDAIYFRI | 0.385 | 0.641 |  |
| CLVSLPIKLFFR | 0.123 | 0.652 |  |
| AITLPMCPLLLT | 0.449 | 0.491 |  |
| CLVSKPILLFFR | 0.17 | 0.627 |  |
| CLVSLPILLFFK | 0.0574 | 0.577 |  |
| GLYMCSVGNWFR | 0.611 | 0.683 |  |
| ARCRVGLWRGAS | 0.597 |  | 0.706 |
| PSLAASFWRMVG | 0.151 |  | 0.646 |
| ARWRVGLWNGAS | 0.634 |  | 0.664 |
| VRGAVGNWRLVG | 0.14 |  | 0.69 |
| RLIQPLPTQFLN | 0.215 |  | 0.638 |
| LKILKQKMNHQN | 0.222 |  | 0.68 |

| Sequence | protein stability index (Saccharomyces cerevisiae [1]) | protein stability index (Saccharomyces cerevisiae [2]) | protein stability index (Saccharomyces cerevisiae [3]) |
| --- | --- | --- | --- |
| TSLAASFWRVVG | 0.125 |  | 0.688 |
| YLIQPLPVQFLN | 0.0777 |  | 0.624 |
| PSLANSFWRVVG | 0.269 |  | 0.711 |
| FSMRWTFTYWVN | 0.0917 |  | 0.389 |
| FSMRWTFRYGVN | 0.338 |  | 0.527 |
| LKILRQKPNHQN | 0.68 |  | 0.675 |
| KKHKKGQKQKIQ | 0.37 |  | 0.594 |
| VRGAEGGWRLVG | 0.242 |  | 0.686 |
| RLIQPLPVQFLC | 0.0371 |  | 0.566 |
| VRYAVGGWRLVG | 0.0921 |  | 0.68 |
| PDKRNHLICLLN | 0.269 |  | 0.608 |
| FSMRWTFRDWVN | 0.595 |  | 0.724 |
| FSMRWTFRYFVN | 0.0378 |  | 0.631 |
| LKILRQKMNHEN | 0.237 |  | 0.671 |
| ARWRNGLWRGAS | 0.658 |  | 0.701 |
| PDKRNHLWKLLN | 0.0949 |  | 0.601 |
| VKHKKGQKQKIN | 0.105 |  | 0.716 |
| LKILRQKMNHQNL | 0.672 |  | 0.697 |
| GDKRNHLIKLLN | 0.158 |  | 0.613 |
| KKHKKDQKQKIN | 0.0671 |  | 0.606 |
| ARWRVILWRGAS | 0.496 |  | 0.627 |
| RLIQPLPVQFLNG | 0.626 |  | 0.655 |
| KKHKKGQKQWIN | 0.553 |  | 0.657 |

| Sequence | protein stability index (Saccharomyces cerevisiae [1]) | protein stability index (Saccharomyces cerevisiae [2]) | protein stability index (Saccharomyces cerevisiae [3]) |
| --- | --- | --- | --- |
| LVVYLKCVACIN | 0.0164 |  | 0.0351 |
| VRGAVGGWRIVG | 0.325 |  | 0.678 |
| SKILRQKMNHQN | 0.153 |  | 0.677 |
| LKILRQKMNSQN | 0.213 |  | 0.672 |
| PSLAASFWRVVK | 0.661 |  | 0.688 |
| NDKRNHLIKLLN | 0.128 |  | 0.609 |
| PSLAASFFRVVG | 0.609 |  | 0.654 |
| CTSCGYKFRTNP | 0.689 |  | 0.701 |
| PSLAAYFWRVVG | 0.142 |  | 0.677 |
| PDKRNHLIKYLN | 0.0757 |  | 0.638 |
| VRGAVGGLRLVG | 0.628 |  | 0.681 |
| PDKRNILIKLLN | 0.165 |  | 0.598 |
| ARQRVGLWRGAS | 0.6 |  | 0.694 |
| VRNAVGGWRLVG | 0.137 |  | 0.674 |
| LGILRQKMNHQN | 0.141 |  | 0.685 |
| PSLAASFWRVVF | 0.699 |  | 0.701 |
| KKHKKGQKLKIN | 0.114 |  | 0.562 |
| PRWRVGLWRGAS | 0.364 |  | 0.707 |
| GSMRWTFRYWVN | 0.0781 |  | 0.677 |
| KKHKKGVKQKIN | 0.128 |  | 0.743 |
